Laboratory results reported in paper PMC12170880.

How the values were obtained:
Settings in all cases: EMSA: 10 mM Tris-HCl pH 7.5, 50 mM NaCl, 1 mM EDTA, 5% glycerol, 1 mg/mL BSA, 1 mM DTT; 30 min, room temperature; 6% native PAGE, 0.5x TBE
[1] = biological target: T1, HDIP1-c (Arabidopsis thaliana) (UniProt F4I0M4); test: EMSA
T1 sequence: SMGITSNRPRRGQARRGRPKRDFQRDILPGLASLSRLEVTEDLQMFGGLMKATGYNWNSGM

[2] = biological target: T2, HDIP1-a (Arabidopsis thaliana) (UniProt F4I0M4); test: EMSA
T2 sequence: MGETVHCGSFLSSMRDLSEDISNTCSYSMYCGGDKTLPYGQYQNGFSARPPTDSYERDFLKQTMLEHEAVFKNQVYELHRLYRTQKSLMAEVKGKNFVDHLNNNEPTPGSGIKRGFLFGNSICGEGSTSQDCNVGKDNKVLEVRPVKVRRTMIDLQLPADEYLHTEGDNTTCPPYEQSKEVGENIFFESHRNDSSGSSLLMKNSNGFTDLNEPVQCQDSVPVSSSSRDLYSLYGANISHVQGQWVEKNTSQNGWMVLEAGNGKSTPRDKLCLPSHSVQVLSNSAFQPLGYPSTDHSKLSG

[3] = biological target: T3, HDIP1-b (Arabidopsis thaliana) (UniProt F4I0M4); test: EMSA
T3 sequence: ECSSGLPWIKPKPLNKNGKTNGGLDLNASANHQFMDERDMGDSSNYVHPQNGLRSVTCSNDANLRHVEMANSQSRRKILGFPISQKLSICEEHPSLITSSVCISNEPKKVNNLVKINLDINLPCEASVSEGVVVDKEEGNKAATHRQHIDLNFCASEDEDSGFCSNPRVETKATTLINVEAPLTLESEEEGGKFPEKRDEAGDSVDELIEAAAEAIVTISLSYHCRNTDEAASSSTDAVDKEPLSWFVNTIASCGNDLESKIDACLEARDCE

[4] = biological target: T4, HDIP1-d (Arabidopsis thaliana) (UniProt F4I0M4); test: EMSA
T4 sequence: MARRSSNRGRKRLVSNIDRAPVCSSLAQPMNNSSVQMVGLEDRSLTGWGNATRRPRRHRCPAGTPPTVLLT

[5] = biological target: T5, HDIP3-DBD (Arabidopsis thaliana) (UniProt Q9LMG4); test: EMSA
T5 sequence: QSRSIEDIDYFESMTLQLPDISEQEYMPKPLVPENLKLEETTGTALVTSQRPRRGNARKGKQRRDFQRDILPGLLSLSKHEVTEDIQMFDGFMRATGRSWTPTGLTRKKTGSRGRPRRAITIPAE

[6] = biological target: T1, HDIP1-c (Arabidopsis thaliana); test: competition

Sequence	binding [1]	binding [2]	binding [3]	binding [4]	binding [5]	binding [6]
TTCCTAAGAGGTCTAGATTGGTGCTTGGACTTTAATTTGGTCTTCGTCTCTCGTTCTCGTATTTATGCATTTTGAAACTCAAAAAAGGAAGAGAGAGAAGAATAATATGATTTTGGCTACTTGGTTTGGAAATAAGTTAATTAAGTAAAAGTGTATTGAGATATAATTCAATGGTACGTGTGTGAATCCAAAGTCGTGTT (double strand) [P3 (200 bp)]	binds					
CCACTCCACATAGCTACGTCACTTAAAGTCCCATAGTAACTAATTTTCTTTGAATGTTATAGCAAATTATTAGCAATGTATGATTCTTTGGGTCAAATCTTACACTAAAAACATGAAAATAATTTGAATATCAAGAGATTCATATATTCATATTTTATAACCAAAATATGTAGGGTCTAAATTATTGCTTCTTGACTAGG (double strand) [P2 (200 bp)]	binds					
TGTGAAGAATGCAGTAAGAGGCAGTCAAAGATTCAAAGGGAAAAAAGTTTACGAAAACAAAAGATTATATTTTGGGAGTATTAGGCTGCCACGTGGAAACACTTGCACCGGCATTTGACCGTCGCCGACACATGACCTGGCACGTGCTAGAGACTGTCTTCTCTTCTTCTTCTTCTTTTTCCCTCACTGTTTCACGAACC (double strand) [P1 (200 bp)]	binds	no binding	no binding	no binding	binds	binds
